# Assay results as given in article PMC10156175 (Cell, 2023).
# Experiments:
# [1] = biological target: CUL1 (human, UniProt Q13616); experiment: cryo-EM structure
# [2] = biological target: SCF^SKP2 (CUL1-RBX1-SKP1-SKP2), pre-formed (human, UniProt Q13616;P62877;P63208;Q13309); experiment: native gel or EMSA
# [3] = biological target: SCF^FBXW7 (CUL1-RBX1-SKP1-FBXW7), pre-formed (human, UniProt Q13616;P62877;P63208;Q969H0, for the native gels: labelled with fluorescein (site not stated)); experiment: native gel or EMSA
# Sequence of SCF^FBXW7 (CUL1-RBX1-SKP1-FBXW7), pre-formed (Q13616 whole entry, chain 1 of 3): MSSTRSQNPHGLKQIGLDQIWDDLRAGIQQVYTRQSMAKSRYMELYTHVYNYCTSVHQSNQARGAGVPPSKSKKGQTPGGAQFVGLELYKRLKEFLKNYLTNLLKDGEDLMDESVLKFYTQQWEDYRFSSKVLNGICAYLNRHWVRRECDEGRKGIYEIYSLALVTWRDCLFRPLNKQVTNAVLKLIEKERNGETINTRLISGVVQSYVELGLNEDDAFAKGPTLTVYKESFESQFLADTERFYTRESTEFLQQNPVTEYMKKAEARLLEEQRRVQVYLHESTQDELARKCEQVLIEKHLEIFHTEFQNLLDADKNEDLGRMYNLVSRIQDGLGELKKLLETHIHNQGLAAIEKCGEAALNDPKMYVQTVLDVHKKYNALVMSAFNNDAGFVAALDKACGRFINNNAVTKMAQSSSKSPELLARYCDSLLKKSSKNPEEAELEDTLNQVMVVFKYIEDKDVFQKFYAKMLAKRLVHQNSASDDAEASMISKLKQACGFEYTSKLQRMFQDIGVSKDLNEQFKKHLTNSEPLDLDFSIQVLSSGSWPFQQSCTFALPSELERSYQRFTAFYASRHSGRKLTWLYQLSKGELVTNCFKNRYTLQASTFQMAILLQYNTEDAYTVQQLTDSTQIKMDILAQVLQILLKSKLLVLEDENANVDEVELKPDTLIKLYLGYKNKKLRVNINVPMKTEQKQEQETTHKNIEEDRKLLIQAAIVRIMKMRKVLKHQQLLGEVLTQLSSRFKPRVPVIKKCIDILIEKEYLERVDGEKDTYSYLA
# Sequence of SCF^FBXW7 (CUL1-RBX1-SKP1-FBXW7), pre-formed (P62877 5-108, chain 2 of 3): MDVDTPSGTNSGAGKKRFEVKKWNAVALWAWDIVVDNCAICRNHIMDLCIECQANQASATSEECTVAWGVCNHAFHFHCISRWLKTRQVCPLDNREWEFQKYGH
# Sequence of SCF^FBXW7 (CUL1-RBX1-SKP1-FBXW7), pre-formed (P63208 whole entry, chain 3 of 3): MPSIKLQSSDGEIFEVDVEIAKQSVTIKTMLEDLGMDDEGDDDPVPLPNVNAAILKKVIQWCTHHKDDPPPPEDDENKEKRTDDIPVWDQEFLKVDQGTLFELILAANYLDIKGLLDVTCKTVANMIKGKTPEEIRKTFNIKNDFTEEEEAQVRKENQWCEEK
# Sequence of SCF^SKP2 (CUL1-RBX1-SKP1-SKP2), pre-formed (Q13616 whole entry, chain 1 of 4): as the sequence (Q13616 whole entry, chain 1 of 3) above
# Sequence of SCF^SKP2 (CUL1-RBX1-SKP1-SKP2), pre-formed (P62877 5-108, chain 2 of 4): as the sequence (P62877 5-108, chain 2 of 3) above
# Sequence of SCF^SKP2 (CUL1-RBX1-SKP1-SKP2), pre-formed (P63208 whole entry, chain 3 of 4): as the sequence (P63208 whole entry, chain 3 of 3) above
# Sequence of SCF^SKP2 (CUL1-RBX1-SKP1-SKP2), pre-formed (Q13309 whole entry, chain 4 of 4): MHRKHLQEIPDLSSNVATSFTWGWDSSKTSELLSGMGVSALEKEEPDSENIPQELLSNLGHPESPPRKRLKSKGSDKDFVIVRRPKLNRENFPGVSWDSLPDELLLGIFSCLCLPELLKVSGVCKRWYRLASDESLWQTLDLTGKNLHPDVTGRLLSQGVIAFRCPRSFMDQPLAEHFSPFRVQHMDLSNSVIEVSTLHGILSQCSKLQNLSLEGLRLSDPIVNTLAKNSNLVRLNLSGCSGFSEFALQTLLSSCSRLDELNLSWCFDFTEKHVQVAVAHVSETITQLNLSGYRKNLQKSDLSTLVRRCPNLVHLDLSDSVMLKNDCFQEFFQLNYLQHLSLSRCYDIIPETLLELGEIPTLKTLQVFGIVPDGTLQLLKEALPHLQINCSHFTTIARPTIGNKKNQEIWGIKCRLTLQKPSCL
# Sequence of CUL1 (Q13616 whole entry): as the sequence (Q13616 whole entry, chain 1 of 3) above
binding result [1],binding result [2],binding result [3],Binder
binds,–,–,FBXW7 (263-C) (domain or fragment) TQVKHMMQVIEPQFQRDFISLLPKELALYVLSFLEPKDLLQAAQTCRYWRILAEDNLLWREKCKEEGIDEPLHIKRRKVIKPGFIHSPWKSAYIRQHRIDTNWRRGELKSPKVLKGHDDHVITCLQFCGNRIVSGSDDNTLKVWSAVTGKCLRTLVGHTGGVWSSQMRDNIIISGSTDRTLKVWNAETGECIHTLYGHTSTVRCMHLHEKRVVSGSRDATLRVWDIETGQCLHVLMGHVAAVRCVQYDGRRVVSGAYDFMVKVWDPETETCLHTLQGHTNRVYSLQFDGIHVVSGSLDTSIRVWDVETGNCIHTLTGHQSLTSGMELKDNILVSGNADSTVKIWDIKTGQCLQTLQGPNKHQSAVTCLQFNKNFVITSSDDGTVKLWDLKTGEFIRNLVTLESGGSGGVVWRIRASNTKLVCAVGSRNGTEETKLLVLDFDVDMK
–,binds,binds,"CAND1 (Cullin-associated NEDD8-dissociated protein 1) (natural protein, for the native gels only: TAMRA-(PEG)5-LPETGG peptide joined to the amino-terminus by sortase) MASASYHISNLLEKMTSSDKDFRFMATNDLMTELQKDSIKLDDDSERKVVKMILKLLEDKNGEVQNLAVKCLGPLVSKVKEYQVETIVDTLCTNMLSDKEQLRDISSIGLKTVIGELPPASSGSALAANVCKKITGRLTSAIAKQEDVSVQLEALDIMADMLSRQGGLLVNFHPSILTCLLPQLTSPRLAVRKRTIIALGHLVMSCGNIVFVDLIEHLLSELSKNDSMSTTRTYIQCIAAISRQAGHRIGEYLEKIIPLVVKFCNVDDDELREYCIQAFESFVRRCPKEVYPHVSTIINICLKYLTYDPNYNYDDEDEDENAMDADGGDDDDQGSDDEYSDDDDMSWKVRRAAAKCLDAVVSTRHEMLPEFYKTVSPALISRFKEREENVKADVFHAYLSLLKQTRPVQSWLCDPDAMEQGETPLTMLQSQVPNIVKALHKQMKEKSVKTRQCCFNMLTELVNVLPGALTQHIPVLVPGIIFSLNDKSSSSNLKIDALSCLYVILCNHSPQVFHPHVQALVPPVVACVGDPFYKITSEALLVTQQLVKVIRPLDQPSSFDATPYIKDLFTCTIKRLKAADIDQEVKERAISCMGQIICNLGDNLGSDLPNTLQIFLERLKNEITRLTTVKALTLIAGSPLKIDLRPVLGEGVPILASFLRKNQRALKLGTLSALDILIKNYSDSLTAAMIDAVLDELPPLISESDMHVSQMAISFLTTLAKVYPSSLSKISGSILNELIGLVRSPLLQGGALSAMLDFFQALVVTGTNNLGYMDLLRMLTGPVYSQSTALTHKQSYYSIAKCVAALTRACPKEGPAVVGQFIQDVKNSRSTDSIRLLALLSLGEVGHHIDLSGQLELKSVILEAFSSPSEEVKSAASYALGSISVGNLPEYLPFVLQEITSQPKRQYLLLHSLKEIISSASVVGLKPYVENIWALLLKHCECAEEGTRNVVAECLGKLTLIDPETLLPRLKGYLISGSSYARSSVVTAVKFTISDHPQPIDPLLKNCIGDFLKTLEDPDLNVRRVALVTFNSAAHNKPSLIRDLLDTVLPHLYNETKVRKELIREVEMGPFKHTVDDGLDIRKAAFECMYTLLDSCLDRLDIFEFLNHVEDGLKDHYDIKMLTFLMLVRLSTLCPSAVLQRLDRLVEPLRATCTTKVKANSVKQEFEKQDELKRSAMRAVAALLTIPEAEKSPLMSEFQSQISSNPELAAIFESIQKDSSSTNLESMDTS"
